Data reported in publication PMC13281853 (The FASEB Journal, 2022).

How the values were obtained:
[1] = target: ancGR2-LBD (ligand-binding domain of the ancestral glucocorticoid receptor 2), Dex-bound; assay: SPR
SPR = target: the molecule itself; assay: SPR

Kd [1]: 11.6 ± 1.5 µM
B1: MR-LBD (ligand-binding domain of the mineralocorticoid receptor), Dex-bound (domain or fragment)
chain: QLSTISRALTPSPVMVLENIEPEIVYAGYDSSKPDTAENLLSTLNRLAGKQMIQVVKWAKVLPGFKNLPLEDQITLIQYSWMCLSSFALSWRSYKHTNSQFLYFAPDLVFNEEKMHQSAMYELCQGMHQISLQFVRLQLTFEEYTIMKVLLLLSTIPKDGLKSQAAFEEMRTNYIKELRKMVTKCPNNSGQSWQRFYQLTKLLDSMHDLVSDLLEFCFYTFRESHALKVEFPAMLVEII
Kd (SPR): 1.49 ± 0.41 µM
